Test results taken from patent publication US6037145.

Biological target: Z-Phe-Leu-Glu-4-nitranilide

Work on recombinant V8 protease (V8D) (enzyme) yielded an enzyme activity after refolding of 30 µg/mL.
